Measurements published in patent publication US20250171562A1 (ALK ABELL, published 2025).
Blank lines part the entries; values can stand above or below the binder they belong to.

Molecular target: T1, recombinant human IgE (human, UniProt P01854-1 1-428)
T1 construct: made in-house (ALK); preloaded on immobilised FcεRIα in the displacement ELISA
Assay: IgE-FcεRIα displacement ELISA
Method: The displacement effect was tested using IgE-FcεRIα displacement ELISA assay. Maxisorp® microtiter plates (Thermo Scientific Nunc, Roskilde, Denmark) were coated with 100 μl streptavidin, 5 μg/ml (Thermo Scientific, Waltham, MA) for 18 h at 4° C. followed by wash with 300 μl washing buffer (PBS containing 0.05% Tween 20) using an AquaMax® 2000 plate washer (Molecular Devices, San Jose, CA). Remaining binding sites were blocked with 250 μl blocking buffer (PBS containing 2% BSA) for 2 h and washed with 300 μl washing buffer. Subsequently, the bound streptavidin was loaded with 100 μl (0.1 μg/ml) recombinant human FcεRIα (site specific biotinylated via avi-tag, made in-house, ALK, Hørsholm, Denmark) for 1 h and plates washed twice with 300 μl washing buffer. The bound receptor was then loaded with 100 μl recombinant human IgE (made in-house, ALK, Hørsholm, Denmark), 13 ng/ml (pre-titrated to reach an OD₄₅₀ signal in the range of 1.5-2.5 in the absence of displacement components) for 1h followed by three washes of 300 μl washing buffer.
displacement step: 100 μl sdAbs diluted in concentration series (pM-μM range) or blocking buffer only as a non-displacement negative control, were added to the ELISA wells and incubated for 1 h. Any IgE, displaced from the receptor by a sdAb was washed away by three washes of 300 μl washing buffer.
The ability of the various sdAbs to displace IgE from the receptor (FcεRIα) was evaluated by use of the ELISA based IgE-FcεRIα displacement assay. The percent displacement effect was calculated as the relative reduction in signal compared to the control with no sdAb added. The EC₅₀ values and the maximal effects were determined (table 15).

T1 sequence (P01854 other isoform, or with tags, fused parts or gaps): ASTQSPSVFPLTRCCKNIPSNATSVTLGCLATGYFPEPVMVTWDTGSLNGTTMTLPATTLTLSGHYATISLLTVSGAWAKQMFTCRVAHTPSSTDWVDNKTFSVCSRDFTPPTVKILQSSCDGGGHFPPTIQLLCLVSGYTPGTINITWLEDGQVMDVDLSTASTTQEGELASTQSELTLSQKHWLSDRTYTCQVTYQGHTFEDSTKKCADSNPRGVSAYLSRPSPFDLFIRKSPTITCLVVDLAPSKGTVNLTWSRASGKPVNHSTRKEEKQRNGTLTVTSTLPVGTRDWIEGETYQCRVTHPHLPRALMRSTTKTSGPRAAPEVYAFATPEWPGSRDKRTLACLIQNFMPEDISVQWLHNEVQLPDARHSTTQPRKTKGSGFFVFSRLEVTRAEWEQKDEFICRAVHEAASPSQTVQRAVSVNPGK

B1: B1A1(G4S)2 (bispecific antibody)
chain: QVQLQESGGGLVQTGGSLRLSCAVHGRTFSNTGMGWFRQAPGNERQFVAIISPSGTSTYYADSVKGRFTISRDPAKNTVYLQMNSLKMDDTAVYYCAASYGSNWSTLRHQRRNEYDAWGQGTQVAVSGGGGSGGGGSEVQLLESGGGLVQPGGSLRLSCAASGFTFGNYDMAWVRQAPGKRPEWVSSIDTGGDITHYADSVKGRFTISRDNAKNTLYLQMNSLRPEDTAVYWCATDEEYALGPNEFDYYGQGTLVTVSS
- EC50: 10 nM
- Max effect: > 95%

B4: F5A1(G4S)4 (bispecific antibody)
chain: DVQLQESGGGLVQPGGSLRLSCAASGSIFSIDIMGWYRQAPGKQRELVATMPEGNYINYADSVKGRLTLSRDKGKNTVYLQLNSLKPEDTAVYYCYGFGVREGRGNVYWGQGTQVTVSGGGGSGGGGSGGGGSGGGGSEVQLLESGGGLVQPGGSLRLSCAASGFTFGNYDMAWVRQAPGKRPEWVSSIDTGGDITHYADSVKGRFTISRDNAKNTLYLQMNSLRPEDTAVYWCATDEEYALGPNEFDYYGQGTLVTVS
- EC50: 1100 nM
- Max effect: 75%

B5: B1A1(G4S)1 (bispecific antibody)
chain: QVQLQESGGGLVQTGGSLRLSCAVHGRTFSNTGMGWFRQAPGNERQFVAIISPSGTSTYYADSVKGRFTISRDPAKNTVYLQMNSLKMDDTAVYYCAASYGSNWSTLRHQRRNEYDAWGQGTQVAVSGGGGSEVQLLESGGGLVQPGGSLRLSCAASGFTFGNYDMAWVRQAPGKRPEWVSSIDTGGDITHYADSVKGRFTISRDNAKNTLYLQMNSLRPEDTAVYWCATDEEYALGPNEFDYYGQGTLVTVSS
- EC50: 5.3 nM
- Max effect: > 95%

B6: sdAb A2 (VHH)
VHH: EVQLLESGGGLVQPGGSLRLSCAASGFRFGNYDMAWVRQAPGKRYEWVSSIDTGGDITHYADSVKGRFTISRDNAKNTLYLQMNSLRPEDTAEYWCATDEEYALGPNEFDYYGQGTLVTVS
notes: also called A1 triple mutant (T28R, P45Y, V93E)
- EC50: 250 nM
- Max effect: > 95%

B8: sdAb F6 (VHH)
VHH: DVQLQESGGGLVQAGGSLRLSCAASGLTFGSYDMGWYRQAPGKQRELVGRIRNDGITYYADSVKGRFTMSRDNAKNTVYLQMNSLKPEDTAVYYCAADGTGLGHYDYWGQGTQVTVS
- Max effect: < 20%

B11: B1A1(G4S)3 (bispecific antibody)
chain: QVQLQESGGGLVQTGGSLRLSCAVHGRTFSNTGMGWFRQAPGNERQFVAIISPSGTSTYYADSVKGRFTISRDPAKNTVYLQMNSLKMDDTAVYYCAASYGSNWSTLRHQRRNEYDAWGQGTQVAVSGGGGSGGGGSGGGGSEVQLLESGGGLVQPGGSLRLSCAASGFTFGNYDMAWVRQAPGKRPEWVSSIDTGGDITHYADSVKGRFTISRDNAKNTLYLQMNSLRPEDTAVYWCATDEEYALGPNEFDYYGQGTLVTVSS
- EC50: 5.3 nM
- Max effect: > 95%

B12: NIgG4B1A1(RS) (Fc fusion)
chain 1: QVQLQESGGGLVQTGGSLRLSCAVHGRTFSNTGMGWFRQAPGNERQFVAIISPSGTSTYYADSVKGRFTISRDPAKNTVYLQMNSLKMDDTAVYYCAASYGSNWSTLRHQRRNEYDAWGQGTQVAVSRSGPPCPPCPAPEFLGGPSVFLFPPKPKDTLMISRTPEVTCVVVDVSQEDPEVQFNWYVDGVEVHNAKTKPREEQFNSTYRVVSVLTVLHQDWLNGKEYKCKVSNKGLPSSIEKTISKAKGQPREPQVYTLPPCQEEMTKNQVSLWCLVKGFYPSDIAVEWESNGQPENNYKTTPPVLDSDGSFFLYSRLTVDKSRWQEGNVFSCSVMHEALHNHYTQKSLSLSLGK
chain 2: EVQLLESGGGLVQPGGSLRLSCAASGFTFGNYDMAWVRQAPGKRPEWVSSIDTGGDITHYADSVKGRFTISRDNAKNTLYLQMNSLRPEDTAVYWCATDEEYALGPNEFDYYGQGTLVTVSSRSGPPCPPCPAPEFLGGPSVFLFPPKPKDTLMISRTPEVTCVVVDVSQEDPEVQFNWYVDGVEVHNAKTKPREEQFNSTYRVVSVLTVLHQDWLNGKEYKCKVSNKGLPSSIEKTISKAKGQPREPQVCTLPPSQEEMTKNQVSLSCAVKGFYPSDIAVEWESNGQPENNYKTTPPVLDSDGSFFLVSRLTVDKSRWQEGNVFSCSVMHEALHNHYTQKSLSLSLGK
notes: same for the Fc fusions below
- EC50: 1.9 nM
- Max effect: > 95%

More lines, now with the values ahead:

- EC50: 0.6 nM
- Max effect: > 95%
B2: A1B1(G4S)3 (bispecific antibody)
chain: EVQLLESGGGLVQPGGSLRLSCAASGFTFGNYDMAWVRQAPGKRPEWVSSIDTGGDITHYADSVKGRFTISRDNAKNTLYLQMNSLRPEDTAVYWCATDEEYALGPNEFDYYGQGTLVTVSSGGGGSGGGGSGGGGSQVQLQESGGGLVQTGGSLRLSCAVHGRTFSNTGMGWFRQAPGNERQFVAIISPSGTSTYYADSVKGRFTISRDPAKNTVYLQMNSLKMDDTAVYYCAASYGSNWSTLRHQRRNEYDAWGQGTQVAVS

- EC50: 1.4 nM
- Max effect: > 95%
B3: NIgG4B1A1(G4S)2 (Fc fusion)
chain 1: QVQLQESGGGLVQTGGSLRLSCAVHGRTFSNTGMGWFRQAPGNERQFVAIISPSGTSTYYADSVKGRFTISRDPAKNTVYLQMNSLKMDDTAVYYCAASYGSNWSTLRHQRRNEYDAWGQGTQVAVSGGGGSGGGGSGPPCPPCPAPEFLGGPSVFLFPPKPKDTLMISRTPEVTCVVVDVSQEDPEVQFNWYVDGVEVHNAKTKPREEQFNSTYRVVSVLTVLHQDWLNGKEYKCKVSNKGLPSSIEKTISKAKGQPREPQVYTLPPCQEEMTKNQVSLWCLVKGFYPSDIAVEWESNGQPENNYKTTPPVLDSDGSFFLYSRLTVDKSRWQEGNVFSCSVMHEALHNHYTQKSLSLSLGK
chain 2: EVQLLESGGGLVQPGGSLRLSCAASGFTFGNYDMAWVRQAPGKRPEWVSSIDTGGDITHYADSVKGRFTISRDNAKNTLYLQMNSLRPEDTAVYWCATDEEYALGPNEFDYYGQGTLVTVSSGGGGSGGGGSGPPCPPCPAPEFLGGPSVFLFPPKPKDTLMISRTPEVTCVVVDVSQEDPEVQFNWYVDGVEVHNAKTKPREEQFNSTYRVVSVLTVLHQDWLNGKEYKCKVSNKGLPSSIEKTISKAKGQPREPQVCTLPPSQEEMTKNQVSLSCAVKGFYPSDIAVEWESNGQPENNYKTTPPVLDSDGSFFLVSRLTVDKSRWQEGNVFSCSVMHEALHNHYTQKSLSLSLGK

- EC50: 0.9 nM
- Max effect: > 95%
B7: NIgG4B1A1(G4S)3 (Fc fusion)
chain 1: QVQLQESGGGLVQTGGSLRLSCAVHGRTFSNTGMGWFRQAPGNERQFVAIISPSGTSTYYADSVKGRFTISRDPAKNTVYLQMNSLKMDDTAVYYCAASYGSNWSTLRHQRRNEYDAWGQGTQVAVSGGGGSGGGGSGGGGSGPPCPPCPAPEFLGGPSVFLFPPKPKDTLMISRTPEVTCVVVDVSQEDPEVQFNWYVDGVEVHNAKTKPREEQFNSTYRVVSVLTVLHQDWLNGKEYKCKVSNKGLPSSIEKTISKAKGQPREPQVYTLPPCQEEMTKNQVSLWCLVKGFYPSDIAVEWESNGQPENNYKTTPPVLDSDGSFFLYSRLTVDKSRWQEGNVFSCSVMHEALHNHYTQKSLSLSLGK
chain 2: EVQLLESGGGLVQPGGSLRLSCAASGFTFGNYDMAWVRQAPGKRPEWVSSIDTGGDITHYADSVKGRFTISRDNAKNTLYLQMNSLRPEDTAVYWCATDEEYALGPNEFDYYGQGTLVTVSSGGGGSGGGGSGGGGSGPPCPPCPAPEFLGGPSVFLFPPKPKDTLMISRTPEVTCVVVDVSQEDPEVQFNWYVDGVEVHNAKTKPREEQFNSTYRVVSVLTVLHQDWLNGKEYKCKVSNKGLPSSIEKTISKAKGQPREPQVCTLPPSQEEMTKNQVSLSCAVKGFYPSDIAVEWESNGQPENNYKTTPPVLDSDGSFFLVSRLTVDKSRWQEGNVFSCSVMHEALHNHYTQKSLSLSLGK

- EC50: 1 nM
- Max effect: > 95%
B9: A1B1(G4S)1 (bispecific antibody)
chain: EVQLLESGGGLVQPGGSLRLSCAASGFTFGNYDMAWVRQAPGKRPEWVSSIDTGGDITHYADSVKGRFTISRDNAKNTLYLQMNSLRPEDTAVYWCATDEEYALGPNEFDYYGQGTLVTVSSGGGGSQVQLQESGGGLVQTGGSLRLSCAVHGRTFSNTGMGWFRQAPGNERQFVAIISPSGTSTYYADSVKGRFTISRDPAKNTVYLQMNSLKMDDTAVYYCAASYGSNWSTLRHQRRNEYDAWGQGTQVAVS

- EC50: 1.1 nM
- Max effect: > 95%
B10: NIgG4B1A1(G4S)1 (Fc fusion)
chain 1: QVQLQESGGGLVQTGGSLRLSCAVHGRTFSNTGMGWFRQAPGNERQFVAIISPSGTSTYYADSVKGRFTISRDPAKNTVYLQMNSLKMDDTAVYYCAASYGSNWSTLRHQRRNEYDAWGQGTQVAVSGGGGSGPPCPPCPAPEFLGGPSVFLFPPKPKDTLMISRTPEVTCVVVDVSQEDPEVQFNWYVDGVEVHNAKTKPREEQFNSTYRVVSVLTVLHQDWLNGKEYKCKVSNKGLPSSIEKTISKAKGQPREPQVYTLPPCQEEMTKNQVSLWCLVKGFYPSDIAVEWESNGQPENNYKTTPPVLDSDGSFFLYSRLTVDKSRWQEGNVFSCSVMHEALHNHYTQKSLSLSLGK
chain 2: EVQLLESGGGLVQPGGSLRLSCAASGFTFGNYDMAWVRQAPGKRPEWVSSIDTGGDITHYADSVKGRFTISRDNAKNTLYLQMNSLRPEDTAVYWCATDEEYALGPNEFDYYGQGTLVTVSSGGGGSGPPCPPCPAPEFLGGPSVFLFPPKPKDTLMISRTPEVTCVVVDVSQEDPEVQFNWYVDGVEVHNAKTKPREEQFNSTYRVVSVLTVLHQDWLNGKEYKCKVSNKGLPSSIEKTISKAKGQPREPQVCTLPPSQEEMTKNQVSLSCAVKGFYPSDIAVEWESNGQPENNYKTTPPVLDSDGSFFLVSRLTVDKSRWQEGNVFSCSVMHEALHNHYTQKSLSLSLGK
